Substrate in this data set: CCCCC/C=C\C/C=C\C/C=C\C/C=C\CCCC(=O)O
Description: cells, lysate or membranes named. As to conditions: other: R53H, 0.025% Tween 20, 37 °C.

B1: PGHS-1 R53H variant (Homo sapiens; R53H) (protein)
chain: ADPGAPTPVNPCCYYPCQHQGICVRFGLDHYQCDCTRTGYSGPNCTIPGLWTWLRNSLRPSPSFTHFLLTHGRWFWEFVNATFIREMLMRLVLTVRSNLIPSPPTYNSAHDYISWESFSNVSYYTRILPSVPKDCPTPMGTKGKKQLPDAQLLARRFLLRRKFIPDPQGTNLMFAFFAQHFTHQFFKTSGKMGPGFTKALGHGVDLGHIYGDNLERQYQLRLFKDGKLKYQVLDGEMYPPSVEEAPVLMHYPRGIPPQSQMAVGQEVFGLLPGLMLYATLWLREHNRVCDLLKAEHPTWGDEQLFQTTRLILIGETIKIVIEEYVQQLSGYFLQLKFDPELLFGVQFQYRNRIAMEFNHLYHWHPLMPDSFKVGSQEYSYEQFLFNTSMLVDYGVEALVDAFSRQIAGRIGGGRNMDHHILHVAVDVIRESREMRLQPFNEYRKRFGMKPYTSFQELVGEKEMAAELEELYGDIDALEFYPGLLLEKCHPNSIFGESMIEIGAPFSLKGLLGNPICSPEYWKPSTFGGEVGFNIVKTATLKKLVCLNTKTCPYVSFRVPDASQDDGPAVERPSTEL
B1: the Km amounted to 1.9 ± 0.2 µM.

As a reminder, the Km is the substrate concentration at which the rate is half of its maximum.
